Columns and labels:
[1] = molecular target: T1, Ronin (Thap11), Prospec PRO-2009 (UniProt Q96EK4 1-314); assay: competition; no effect on Ronin-stimulated circularization of N3; Circularization: 1x T4 ligase buffer, 100 ng DNA, 1.358 uM protein, 10 uL, 25 min RT, then ligase 20 min RT. AFM: 1x LightShift binding buffer, 350 mM KCl, 1 mM EDTA, 6% glycerol, 10 min on ice, then 0.4x T4 ligase buffer, 20% glycerol, 1 mM EDTA, 2 mM GTP, 30 min RT; settings: protein: commercial; blunt
[2] = molecular target: T1, Ronin (Thap11), Prospec PRO-2009; assay: competition; abolishes Ronin-stimulated circularization of N3; Circularization: 1x T4 ligase buffer, 100 ng DNA, 1.358 uM protein, 10 uL, 25 min RT, then ligase 20 min RT. AFM: 1x LightShift binding buffer, 350 mM KCl, 1 mM EDTA, 6% glycerol, 10 min on ice, then 0.4x T4 ligase buffer, 20% glycerol, 1 mM EDTA, 2 mM GTP, 30 min RT; settings: protein: commercial; blunt

T1 sequence (Q96EK4 whole entry): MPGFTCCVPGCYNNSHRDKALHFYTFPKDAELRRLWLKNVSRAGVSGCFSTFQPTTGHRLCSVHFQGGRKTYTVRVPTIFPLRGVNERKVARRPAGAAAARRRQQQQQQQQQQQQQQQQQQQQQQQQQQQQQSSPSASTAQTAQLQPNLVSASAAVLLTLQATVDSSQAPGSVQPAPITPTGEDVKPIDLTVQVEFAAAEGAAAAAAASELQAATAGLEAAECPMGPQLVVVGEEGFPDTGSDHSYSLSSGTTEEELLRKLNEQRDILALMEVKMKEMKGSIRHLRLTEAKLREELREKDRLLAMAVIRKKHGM

B1: C2 competitor (both RBM half-sites mutated) (dsDNA)
DNA 1: ACTAGCTCTTGATTCCGGAGCTGGAGGCAATCTCT
DNA 2: AGAGATTGCCTCCAGCTCCGGAATCAAGAGCTAGT
B1: no binding [1].

B2: C1 competitor (RBM in random flanks) (dsDNA)
DNA 1: ACTAGCTCTCTGGGAATTGTAGTTCGGCAATCTCT
DNA 2: AGAGATTGCCGAACTACAATTCCCAGAGAGCTAGT
B2: binds [2].

Reference: publication PMC10329844, “Regulatory architecture of housekeeping genes is driven by promoter assemblies”
